US20240092847A1, “FUNCTIONAL NUCLEIC ACID MOLECULE AND METHOD” (The University Court of The University of Edinburgh, priority 2021, published 2024)

Legend:
Type in all cases: cell-based, human
[1] = tested on: GSC7 cells; assay: Flow cytometry of mNGreen reporter in GSC7
Protocol: (§1) Cells were seeded at the required density. The following day the transfection was carried out. For this the Plus reagent and Lipofectamine LTX (Life Technologies, 15338030) were each diluted in half the volume of Opti-MEM I Reduced-Serum Medium (further referred to as Optimem) (Life Technologies, 31985062). Following this step, the Plus reagent/Optimem premix was added to all DNA samples followed by the Lipofectamine LTX/Optimem premix. The transfection mix was incubated for 5 min at room temperature and then carefully dropped on the cells. Generally, no media change was carried out. Cells were analysed two days following transfection.
For flow cytometry, cells were detached, pelleted and resuspended in an appropriate volume of flow cytometry buffer (1% BSA in PBS, v/v). Cells were stained with Draq7 (Abcam, ab109202, f.c. 0.1 μM) as a live/dead stain and analysed using the BD LSRFortessa cell analyser (4 lasers, BD Bioscience). Analysis of flow cytometry data was carried out in the FlowJo Analysis software (FlowJo, version 10.6.2).

[2] = tested on: GSC7 cells; assay: Nano-Glo Dual-Luciferase Reporter (Nanoglo DLR) enhancer assay in GSC7
Source text: We chose an arrayed library format, with 160 bp enhancer fragments individually cloned into separate plasmids and arrayed in 96 well plates. These 160 bp were synthesized as a single pool of oligos, then randomly cloned into the plasmid and isolated. 20 bp×2 were needed for PCR amplification of the pool and so a library of 200 bp fragments was synthesized (Twist Biosciences). To meet our oligo synthesis strategy, ChIP-seq peaks expressed by GSCs were merged into a single oligo. This oligonucleotide pool was PCR-amplified (using limited cycles to reduce bias and ‘jackpot’ products meaning products which are easier to amplify will overtake the oligonucleotide pool) and cloned into the expression vector by an efficient Golden Gate reaction. 4579 individual plasmids were then randomly picked, isolated and plated as an arrayed plasmid DNA library on 96 well plates (×48). The bacterial colony picking and production of plasmid minipreps were supported by the Edinburgh Genome Foundry (S. Rosser). This library was then screened using the optimised Nanoglo DLR assay (Nano-Glo Dual-Luciferase Reporter Assay, Promega) in 384 well format. Each plate was transiently transfected together with PGK-FFLuc in a 1:10 ratio into GSC7 cells. 2 days later a Nanoglo DLR assay was performed and assayed on a plate reader.
Cells were seeded in 384 well plates using a multidrop and transfected the following day using the CyBio Felix. Two days later the experiment was terminated with a Nanoglo DLR assay and all hits with a fold change to mCMV greater than 10 were Sanger sequenced and mapped back to the genome.
as §1
This assay consists of two steps. […] First, the Firefly Luciferase activity is measured which allows to normalise to transfection efficiency. In a second step, the activity of Nanoluc is determined which is the readout of the plasmid of interest. […] 20 μl cell lysate in 96 well format or 25 μl cell lysate in 384 well format was then transferred into the corresponding opaque white plate and luminescence was measured at for 0.1 s per well using the Ensight Multimode Plate Reader. […] Nanoluc activity was measured for 0.1 s per well, again using Ensight Multimode Plate Reader. […]

[3] = tested on: patient-derived glioblastoma cell lines; assay: SSE-7 mCherry expression across patient-derived glioblastoma cell lines
Source text: The experiment described in Example 8 was repeated in five patient-derived glioblastoma cell lines (E17, E21, E28, E31, E34).

Molecule	activity compared with full CMV by flow cytometry [1]	activity compared with full CMV by Nanoglo DLR assay [2]	mCherry expression ([3]; E21, E31 and E34)	mCherry expression ([3]; GSC7, E17 and E28)
SSE-5: synthetic super-enhancer ID2706_ID3547_ID3548_ID3146, SEQ ID NO: 68 (nucleic acid) DNA: CCAATGCCAAAGCAGTTTACATTTTACAGATGCCATGGCAACCGTCAGGAAGTTACCCTGTATGGTCTAAGAGGGGGAGGAACCCTCAGTTCCGGGAATTGCCCGCCCCTTTCCCGGAAACTCATGAATAATCCACCCCGTTCCCCCTTAACAAAAGCCACCTCCTCCCTCCTGAAAGGCACCATTGGTCACCAAAACAAGTCCCCTTTGTCCTCCACCGCAGCTGGAGCCTGGGCCTTCCATCTCCTGGGGGCCAATAAAACCCCAGATCAGCCAATCCTCCCTCCCTGGCTCTGTCATCCAAACACTCCCCTGCAACAGATGTACACACAGAGCCCATTGTTTTCTCTAGAAATGTAAACTGCACGTCACAGTTACTCCATACACACCACAAACAGACTCCCTTTGTTCTCAGGATATGTGTTGACACAAGAATATGTCATCCTCTCAGCTCCAGACTGAAAGAGATGGGTGTGTGGGAGTGGGGGAAGCTGAGCTCCAGGCAGACAGCACAGAGCCGCCTTGTCCAACCCAGCCAGGTGCCATGGCAACCAACAAAGGCCCCATTGTCCCGTGTCTGCTGGGCCTTCCTGAGGCTCTGGGGTCAGAGTCCCGGTT	higher than CMV	higher than CMV	–	–
SSE-1: synthetic super-enhancer ID1101_ID2904_ID0109_ID4328, SEQ ID NO: 64 (nucleic acid) DNA: GTGAGTGTGACTCACATGCTGGCATCAGAGCCCCTCTTAGAGCTTAGAACACTGGGCCTCTGTCAGGCAAAGAAAAGGAGTCCCTATGAATAGCCATCTCCACAAATAGCAGTTACTGTCACTTCTTAAAAGACACAAGCATGGCTGGAGACCGGCACTGTGCATGTTCTTGGGAAAAAGTGGTATTTAATGAAGGCGCTTTGAGCTGAATCAAAGAGCCTCATTCTTCTGAAAGTCCTTCTTCCTAGTCTCTGCATCCGGCTCCTATCAAAGGAAATCCACAGCTTTGGCTTTTCGTTGCTGTTGTCATGGAAATCGTTGAAATTGGATCCTGAGGAGAATGTCACCACCTCTTTGACAATAACTAGCTTTCAGAGCTGAACACAGTGAATCTGGATACTGTGTATATGTTTAAATGAGTTAGGAAATGACATCACATTATTTATTTCTTCTTTTGTGACTTAGTAAATTGACTTGGCCTACAATCTATTCTCCATAGTCATCAGAGTTTCTTTAAAGGCACGGTTCAGACAATGGCACCCTCTGTTCCAAACCCTCCAGGGCTTCCTATTTCACTTAGCATAAAAACCAAAGTCCTCACAATGACCGACAAGTCTTCACACAATGTGCCCCTTCATTG	higher than CMV	higher than CMV	–	–
SSE-2: synthetic super-enhancer ID0109_ID4328_ID0876_ID2339, SEQ ID NO: 65 (nucleic acid) DNA: GAAATTGGATCCTGAGGAGAATGTCACCACCTCTTTGACAATAACTAGCTTTCAGAGCTGAACACAGTGAATCTGGATACTGTGTATATGTTTAAATGAGTTAGGAAATGACATCACATTATTTATTTCTTCTTTTGTGACTTAGTAAATTGACTTGGCCTACAATCTATTCTCCATAGTCATCAGAGTTTCTTTAAAGGCACGGTTCAGACAATGGCACCCTCTGTTCCAAACCCTCCAGGGCTTCCTATTTCACTTAGCATAAAAACCAAAGTCCTCACAATGACCGACAAGTCTTCACACAATGTGCCCCTTCATTGGAGCAGGCAGTCATTTGGTTCCCTTCTCTGAATGCATTGGCTCTGATCCACGGCGCCTCAGGAAGTGAAAGGGAGCAGGCAGTGAGGCCAAGCCATGAATGTTGGGCCCTTTTCTTAGAAAACAAAGGGTTCACTTTAGGCTAGGAGGAAACATCCGGGGGTCGGCGGAACTGAGTCTCCTTTGTGGAGCCCCTCATTTGCATGATAAACCCCGGGGACAAAGTGTGTTCTTGTTACTTGGACTGTTTCTTGGAAACTGCTGCTACCTGGAGCGAGTGAACACAGGGCAAGTATTCTCGCCCACAGCAACGTGTCATTGA	higher than CMV	higher than CMV	–	–
SSE-3: synthetic super-enhancer ID0876_ID2339_ID1737_ID0663, SEQ ID NO: 66 (nucleic acid) DNA: GAGCAGGCAGTCATTTGGTTCCCTTCTCTGAATGCATTGGCTCTGATCCACGGCGCCTCAGGAAGTGAAAGGGAGCAGGCAGTGAGGCCAAGCCATGAATGTTGGGCCCTTTTCTTAGAAAACAAAGGGTTCACTTTAGGCTAGGAGGAAACATCCGGGGGTCGGCGGAACTGAGTCTCCTTTGTGGAGCCCCTCATTTGCATGATAAACCCCGGGGACAAAGTGTGTTCTTGTTACTTGGACTGTTTCTTGGAAACTGCTGCTACCTGGAGCGAGTGAACACAGGGCAAGTATTCTCGCCCACAGCAACGTGTCATTGACAACGTTTTTGGCAGATGCAGCTCTTTCTGAACAGTAAGTCATTGTTGAGTGACATGAATAGGACGAGAGCTACAGAAAATGAAGGTTTCAAAAGATTGTCTAAAACAAAAGTCCTTTCAGTCCCGTATTCAGAGTTATAAATTCCGATTAGCCAAGGAAGCTCTGAGTCTAAATACCAGCAAAGCTCAGCCCCTGCAAGTGGGGACGAATTATTTGAAAGGTCATCCTAGAGACACTGAACAAAGGGCCTCTAGCAGCT	higher than CMV	higher than CMV	–	–
SSE-7: synthetic super-enhancer ID4310_ID4428_ID0785_ID3836, SEQ ID NO: 70 (nucleic acid) DNA: TTGTCCTGCCTTTGAGAACACTGGAAGGGCACTGAAGGCTGACCAGCATGCACCTCACCCCACCTCCTCTCTGTCTCATCCTCAGCCATCTAAGCGGGAGACTCATCAGGCTTAAATTCTCATTCTTATCCAAGATTCTTCTGCTTCAAATGAGTCTAAATGGAGATCCTCCCATAAAGGGAGTTCTGTTTGGGCTTCCCTTGGAAGTCCATTGAAAGCGTTTCACATTTCAATGCTTCTTTACATTCTCCTCTAGAATGAATCTGGAAGGGCCATTTCATTCCAGCCCTATCAGATTTACTACTTCCTCCTGTAAGAATGAACTGGGCCCAGCTGGGCATTTGCATCAAAGTGCCTCACCAGAGTTCCCAGCTGCTCTGGCAGAGTGCCCAGGCTTGCCCCAGAGCCCAAACAGAATGCTCTTTGAGATGCCTCTGGTTTTCATACCCTTCCAGGGGAGCAGTTTCCTGGCTGTGTCGTCAGATACTGTGGTTTACGCTGTTCCGGAGTCTGGAGGTCTGTGTGCCTTTGATCTCTTTCCCAACTAATTTGCACAGCTGCTGTGGAGGCCCTCATGAATGACCTCTTTCTTTCCTTTCT	higher than CMV	–	lower frequency of expression	highly expressed and comparable to full-length CMV
